Measurements reported in patent publication US20260109755A1 (published 2026).
Changes are numbered by the printed parent chain. Names may count otherwise.

T1: SH3 domain-containing YSC84-like 1 (SH3YL1), antigen of the antibodies (UniProt Q96HL8 1-342)
T1 chain: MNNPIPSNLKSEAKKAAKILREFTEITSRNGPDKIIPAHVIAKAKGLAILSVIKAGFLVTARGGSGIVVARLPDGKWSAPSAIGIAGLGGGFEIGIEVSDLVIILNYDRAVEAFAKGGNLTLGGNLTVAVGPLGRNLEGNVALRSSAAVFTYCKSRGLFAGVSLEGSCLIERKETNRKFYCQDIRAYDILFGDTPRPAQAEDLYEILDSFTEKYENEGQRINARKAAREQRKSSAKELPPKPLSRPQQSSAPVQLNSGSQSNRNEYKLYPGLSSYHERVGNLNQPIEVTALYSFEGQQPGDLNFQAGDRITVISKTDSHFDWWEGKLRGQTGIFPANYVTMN

B1: S4A antibody (antibody, V domains shown)
VH: EVQLLESGGGLVQPGGSLRLSCAASGFTFSSYSMNWVRQAPGKGLEWVSWISPNSGSTDYAQKFQGRFTISRDNSKNTLYLQMNSLRAEDTAVYYCARTPPGTPFDYWGQGTLVTVSS
VL: QSVLTQPPSASGTPGQRVTISCSGNNIGSKSVHWYQQLPGTAPRLLIYSTSNKHSGVPDRFSGSKSGTSASLAISGLHSEDEADYYCSSYTSSGTRVFGGGTKLTVLG
B2: 3E11 antibody (antibody, V domains shown)
VH: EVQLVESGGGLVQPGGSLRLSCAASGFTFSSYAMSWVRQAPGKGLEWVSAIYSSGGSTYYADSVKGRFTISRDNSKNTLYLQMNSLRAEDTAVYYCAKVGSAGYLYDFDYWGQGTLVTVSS
VL: DIQMTQSPSSLSASVGDRVTITCRASQDIANYLNWYQQKPGKAPKLLIYATSTLQSGVPSRFSGSGSGTDFTLTISSLQPEDFATYYCQQSYSSPWTFGQGTKVEIKR
B3: 4H7 antibody (antibody, V domains shown)
VH: EVQLVESGGGLVQPGGSLRLSCAASGFTFSTYGMSWVRQAPGKGLEWVSAISSSGGSIYYADSVKGRFTISRDNSKNTLYLQMNSLRAEDTAVYYCAKVSYPGLAFDIWGQGTLVTVSS
VL: B2 VL with D28T, A30S, T53S
B4: 4G4 antibody (antibody, V domains shown)
VH: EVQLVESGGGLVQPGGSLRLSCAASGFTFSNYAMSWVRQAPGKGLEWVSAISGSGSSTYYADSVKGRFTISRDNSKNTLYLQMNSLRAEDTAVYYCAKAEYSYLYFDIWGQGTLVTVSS
VL: B2 VL with D28S, A30S, Y32W, T51A, T53R
B5: 5D5 antibody (antibody, V domains shown)
VH: EVQLVESGGGLVQPGGSLRLSCAASGFTFSDYAMSWVRQAPGKGLEWVSSISSTGSTTYYADSVKGRFTISRDNSKNTLYLQMNSLRAEDTAVYYCAKVLYEYLYFDYWGQGTLVTVSS
VL: B2 VL with A30R, Y32W, T51A, T53S
B6: 4F10 antibody (antibody, V domains shown)
VH: EVQLVESGGGLVQPGGSLRLSCAASGFTFSDYAMSWVRQAPGKGLEWVSAIYSTGSSTYYADSVKGRFTISRDNSKNTLYLQMNSLRAEDTAVYYCAKVGWYLFDYWGQGTLVTVSS
VL: B2 VL with D28S, A30S, N31R, T53R
B7: 4F9 antibody (antibody, V domains shown)
VH: B5 VH with S50A, S52K, T54S, T57S, V99A, L100E, Y105A, Y108I
VL: B2 VL with A30S, N31S, Y32W

Biological target: T1, SH3 domain-containing YSC84-like 1 …

| Kd [nM] | Binder |
| --- | --- |
| 2.06 | B1 |
| 3.56 | B2 |
| 3.43 | B3 |
| 2.96 | B4 |
| 5.49 | B5 |
| 0.404 | B6 |
| 3.63 | B7 |
